Laboratory results from publication PMC9583931, “Emerin interacts with histone methyltransferases to regulate repressive chromatin at the nuclear periphery” (Frontiers in Cell and Developmental Biology, 2022).
Numbering of substitutions follows the chain as printed. In names and notes the source's numbering stands.

B1: emerin (endogenous, wildtype myogenic progenitors) (natural protein, UniProt O08579 1-259, looked up)
chain: MDDYAVLSDTELAAVLRQYNIPHGPIVGSTRKLYEKKIFEYETQRRRLLPPNSSSSSFSYQFSDLDSAAVDSDMYDLPKKEDALLYQSKDYNDDYYEESYLTTKTYGEPESVGMSKSFRQPGTSLVDADTFHHQVRDDIFSSLEEEGKDRERLIYGQDSAYQSIAHYRPISNVSRSSLGLSYYPTSSTSSVSSSSSSPSSWLTRRAIRPEKQAPAAALGQDRQVPLWGQLLLFLVFAAFLLFVYYSIQAEEGNPFWMDP
notes: emerin, endogenous protein of H2K wildtype mouse myogenic progenitors; also called wildtype emerin; endogenous emerin; source: endogenous, H2K wildtype mouse myogenic progenitors, in lysate (soluble fraction)
B2: euchromatic histone lysine methyltransferase 2 (G9a) (enzyme, UniProt Q9Z148 1-1263, looked up)
chain: MRGLPRGRGLMRARGRGRAAPTGGRGRGRGGAHRGRGRPRSLLSLPRAQASWAPQLPAGLTGPPVPCLPSQGEAPAEMGALLLEKEPRGAAERVHSSLGDTPQSEETLPKANPDSLEPAGPSSPASVTVTVGDEGADTPVGAASLIGDEPESLEGDGGRIVLGHATKSFPSSPSKGGACPSRAKMSMTGAGKSPPSVQSLAMRLLSMPGAQGAATAGPEPSPATTAAQEGQPKVHRARKTMSKPSNGQPPIPEKRPPEVQHFRMSDDMHLGKVTSDVAKRRKLNSGSLSEDLGSAGGSGDIILEKGEPRPLEEWETVVGDDFSLYYDAYSVDERVDSDSKSEVEALAEQLSEEEEEEEEEEEEEEEEEEEEEEEEEDEESGNQSDRSGSSGRRKAKKKWRKDSPWVKPSRKRRKREPPRAKEPRGVNGVGSSGPSEYMEVPLGSLELPSEGTLSPNHAGVSNDTSSLETERGFEELPLCSCRMEAPKIDRISERAGHKCMATESVDGELLGCNAAILKRETMRPSSRVALMVLCEAHRARMVKHHCCPGCGYFCTAGTFLECHPDFRVAHRFHKACVSQLNGMVFCPHCGEDASEAQEVTIPRGDGGTPPIGTAAPALPPLAHDAPGRADTSQPSARMRGHGEPRRPPCDPLADTIDSSGPSLTLPNGGCLSAVGLPPGPGREALEKALVIQESERRKKLRFHPRQLYLSVKQGELQKVILMLLDNLDPNFQSDQQSKRTPLHAAAQKGSVEICHVLLQAGANINAVDKQQRTPLMEAVVNNHLEVARYMVQLGGCVYSKEEDGSTCLHHAAKIGNLEMVSLLLSTGQVDVNAQDSGGWTPIIWAAEHKHIDVIRMLLTRGADVTLTDNEENICLHWASFTGSAAIAEVLLNAQCDLHAVNYHGDTPLHIAARESYHDCVLLFLSRGANPELRNKEGDTAWDLTPERSDVWFALQLNRKLRLGVGNRAVRTEKIICRDVARGYENVPIPCVNGVDGEPCPEDYKYISENCETSTMNIDRNITHLQHCTCVDDCSSSNCLCGQLSIRCWYDKDGRLLQEFNKIEPPLIFECNQACSCWRSCKNRVVQSGIKVRLQLYRTAKMGWGVRALQTIPQGTFICEYVGELISDAEADVREDDSYLFDLDNKDGEVYCIDARYYGNISRFINHLCDPNIIPVRVFMLHQDLRFPRIAFFSSRDIRTGEELGFDYGDRFWDIKSKYFTCQCGSEKCKHSAEAIALEQSRLARLDPHPELLPDLSSLPPINT
notes: G9a (EHMT2), endogenous protein of mouse myogenic progenitors; also called EHMT2; source: endogenous, mouse myogenic progenitors, in lysate (soluble fraction)
B3: EZH2 (enzyme)
chain: not shown
notes: EZH2, endogenous protein of mouse myogenic progenitors; also called catalytic component of PRC2; source: endogenous, mouse myogenic progenitors, in lysate (soluble fraction)
B4: emerin S54F (EDMD1 mutant) (natural protein, UniProt P50402 1-254, looked up)
chain: MDNYADLSDTELTTLLRRYNIPHGPVVGSTRRLYEKKIFEYETQRRRLSPPSSFAASSYSFSDLNSTRGDADMYDLPKKEDALLYQSKGYNDDYYEESYFTTRTYGEPESAGPSRAVRQSVTSFPDADAFHHQVHDDDLLSSSEEECKDRERPMYGRDSAYQSITHYRPVSASRSSLDLSYYPTSSSTSFMSSSSSSSSWLTRRAIRPENRAPGAGLGQDRQVPLWGQLLLFLVFVIVLFFIYHFMQAEEGNPF
notes: emerin with the EDMD1-causing mutation S54F; also called S54F emerin
B5: emerin Q133H (EDMD1 mutant) (natural protein, UniProt P50402 1-254, looked up)
chain: B4 chain with F54S, Q133H
notes: emerin with the EDMD1-causing mutation Q133H; also called Q133H emerin

How the values were obtained:
Conditions in all cases: partners not purified
EZH2 = biological target: B3; experiment: co-IP; anti-EZH2 antibody on protein G magnetic beads, incubated overnight with the soluble fraction of sonicated whole-cell lysates (modified NEHN buffer, 500 mM NaCl, 1% NP-40) of proliferating myogenic progenitors; blot for emerin; densitometry, ratio of bound to input
Chain of EZH2 (Q61188 whole entry): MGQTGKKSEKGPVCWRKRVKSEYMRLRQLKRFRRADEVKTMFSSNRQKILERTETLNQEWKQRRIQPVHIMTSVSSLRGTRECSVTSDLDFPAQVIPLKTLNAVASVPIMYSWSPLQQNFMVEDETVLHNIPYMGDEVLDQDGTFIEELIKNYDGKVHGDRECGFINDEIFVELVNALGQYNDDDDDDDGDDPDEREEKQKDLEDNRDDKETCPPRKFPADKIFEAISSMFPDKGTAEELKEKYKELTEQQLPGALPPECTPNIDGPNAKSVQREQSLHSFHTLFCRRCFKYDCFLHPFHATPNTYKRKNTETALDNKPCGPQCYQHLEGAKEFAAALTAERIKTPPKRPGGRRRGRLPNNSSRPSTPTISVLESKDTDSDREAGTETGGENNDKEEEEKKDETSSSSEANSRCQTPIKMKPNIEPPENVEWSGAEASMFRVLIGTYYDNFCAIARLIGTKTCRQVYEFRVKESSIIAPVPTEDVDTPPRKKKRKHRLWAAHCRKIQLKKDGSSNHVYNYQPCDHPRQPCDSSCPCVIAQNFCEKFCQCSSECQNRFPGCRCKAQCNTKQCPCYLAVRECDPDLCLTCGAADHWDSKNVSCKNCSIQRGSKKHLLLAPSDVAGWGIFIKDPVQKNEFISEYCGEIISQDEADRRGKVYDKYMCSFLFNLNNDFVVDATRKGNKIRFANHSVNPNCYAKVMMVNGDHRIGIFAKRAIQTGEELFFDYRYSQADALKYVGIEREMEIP

[1] = biological target: B2; experiment: co-IP; anti-G9a antibody on protein G magnetic beads, incubated overnight with the soluble fraction of sonicated whole-cell lysates (modified NEHN buffer, 500 mM NaCl, 1% NP-40) of proliferating myogenic progenitors; blot for emerin; densitometry, ratio of bound to input
[2] = biological target: B1; experiment: co-IP; anti-emerin antibody on protein G magnetic beads, incubated overnight with the soluble fraction of sonicated whole-cell lysates (modified NEHN buffer, 500 mM NaCl, 1% NP-40) of proliferating myogenic progenitors; blot for G9a or EZH2; densitometry, ratio of bound to input
[3] = biological target: B5; experiment: as above
[4] = biological target: B4; experiment: as above

percent of input bound (EZH2) [%]	percent of input bound [1]	percent of input bound [2] [%]	percent of input bound [3] [%]	percent of input bound [4] [%]	Binder
0.7	0.76 % of input				B1
		0.2	9.6	13.8	B2
		2.4	89.4	57.9	B3
71.8	80.9 % of input				B4
77.8	45.1 % of input				B5
